# In US20160185875A1 (DCB USA, published 2016):
# B1: MMP2-treated IgG1 hinge/MMP2/panitumumab (antibody, V domains shown, not shown: small tags and cut ends)
# VH: QVQLVQSGAEVKKPGASVKVSCKASGYTFTSYWMHWVRQAPGQGLEWMGNIYPGSGGTNYAEKFKNRVTMTRDTSISTAYMELSRLRSDDTAVYYCARSGGPYFFDYWGQGTLVTVSS
# VL: DIVMTQSPLSLPVTPGEPASISCRSSQNIVHNNGITYLEWYLQKPGQSPQLLIYKVSDRFSGVPDRFSGSGSGTDFTLKISRVEAEDVGVYYCFQGSHIPPTFGQGTKVEIKR
# notes: m14 around 2 hours after MMP2 treatment
# Molecular target: T1, EGFR on EGFR-positive SW480 cells (human, UniProt P00533 25-1210)
# T1 construct: whole, on cells; also called epidermal growth factor receptor
# Assay: cell-based ELISA on EGFR-positive SW480 cells, around 2 hours after MMP2 treatment
# Protocol: Briefly, EGFR-positive SW480 cells or HER2-positive SKBr3 cells were seed on a 96-well plate by 10⁵ cells/well using 200 μl of growth medium (DMEM+10% CCS+1% P/S), and incubated at 37° C. overnight.
binder,measurement,value
B1,antigen binding capability (% of parent antibody),~90%
